What was measured:
[1] = molecular target: recombinant human KLK5 (human) (UniProt Q9Y337); assay: pro-KLK7 LC/MS assay, 5 nM KLK5
[2] = molecular target: recombinant human KLK5 (human) (UniProt Q9Y337); assay: pro-KLK7 coupled assay, 5 nM KLK5
[3] = molecular target: recombinant human KLK5 (human) (UniProt Q9Y337); assay: pro-KLK1 LC/MS assay, 0.5 nM KLK5
[4] = molecular target: recombinant human KLK5 (human) (UniProt Q9Y337); assay: pro-KLK1 coupled assay, 0.5 nM KLK5
[5] = molecular target: recombinant human KLK5 (human) (UniProt Q9Y337); assay: Kiapp, KLK5 0.5-0.0625 nM, Z-VPR-pNA
[6] = molecular target: recombinant human KLK5 (human) (UniProt Q9Y337); assay: KLK5 direct activity assay, 5 nM KLK5, Boc-VPR-AMC
[7] = molecular target: recombinant human KLK5 (human) (UniProt Q9Y337); assay: direct activity assay, 5 nM KLK5, Boc-VPR-AMC
[8] = molecular target: recombinant human KLK5 (human) (UniProt Q9Y337); assay: pro-KLK1 coupled assay, 0.5 nM KLK5, 31.25 nM pro-KLK1, PFR-AMC
[9] = molecular target: recombinant human KLK5 (human) (UniProt Q9Y337); assay: pro-KLK7 coupled assay, 5 nM KLK5, 125 nM pro-KLK7, suc-LLVY-AMC
[10] = molecular target: recombinant human KLK5 (human) (UniProt Q9Y337); assay: pro-KLK7 LC/MS assay, 5 nM KLK5, 15 nM pro-KLK7, nM
[11] = molecular target: recombinant human KLK5 (human) (UniProt Q9Y337); assay: array SPR imaging (IBIS MX96), antibody amine-coupled, human KLK5 injected 0-300 nM, 25 C
[12] = molecular target: recombinant human KLK5 (human) (UniProt Q9Y337); assay: Kiapp as the y-intercept of the line of IC50 (nM) versus KLK5 (nM), Z-VPR-pNA
[13] = molecular target: recombinant human KLK5 (human) (UniProt Q9Y337); assay: pro-KLK1 LC/MS assay, 0.5 nM KLK5, 300 nM pro-KLK1; box column 2 of 3; no unit printed, nM per text
[14] = molecular target: recombinant human KLK5 (human) (UniProt Q9Y337); assay: pro-KLK1 LC/MS assay, 0.5 nM KLK5, 300 nM pro-KLK1; box column 3 of 3; no unit printed, nM per text
[15] = molecular target: recombinant human KLK5 (human) (UniProt Q9Y337); assay: pro-KLK1 LC/MS assay, 0.5 nM KLK5, 300 nM pro-KLK1; box column 1 of 3; no unit printed, nM per text
[16] = molecular target: recombinant human KLK5 (human) (UniProt Q9Y337); assay: SPR BIAcore T200, antibody captured by anti-human Fc, human KLK5 as analyte, 37 C
[17] = molecular target: recombinant human KLK5 (human) (UniProt Q9Y337); assay: Kiapp assay curve, 0.125 nM KLK5, Z-VPR-pNA
[18] = molecular target: recombinant human KLK5 (human) (UniProt Q9Y337); assay: Kiapp assay curve, 0.250 nM KLK5, Z-VPR-pNA
[19] = molecular target: recombinant human KLK5 (human) (UniProt Q9Y337); assay: Kiapp assay curve, 0.500 nM KLK5, Z-VPR-pNA
[20] = molecular target: recombinant human KLK5 (human) (UniProt Q9Y337); assay: Kiapp assay curve, 0.063 nM KLK5, Z-VPR-pNA

recombinant human KLK5 (human), sequence (Q9Y337 67-293): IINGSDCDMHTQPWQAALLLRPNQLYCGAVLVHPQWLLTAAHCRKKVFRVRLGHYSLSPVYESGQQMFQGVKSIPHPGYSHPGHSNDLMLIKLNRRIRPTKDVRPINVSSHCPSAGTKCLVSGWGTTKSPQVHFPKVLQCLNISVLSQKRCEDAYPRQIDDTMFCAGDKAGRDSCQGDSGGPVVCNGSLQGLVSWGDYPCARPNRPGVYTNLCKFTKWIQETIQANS

| Binder | IC50 [1] [pM] | IC50 [2] [pM] | IC50 [3] [pM] | IC50 [4] [pM] | Ki [5] [pM] | IC50 (read off the curve) [6] [pM] | IC50 [7] [pM] | IC50 (read off the curve) [8] [pM] | IC50 (read off the curve) [9] [pM] | IC50 [10] [pM] | koff [11] [s⁻¹] | Ki [12] [pM] | IC50 [13] [pM] | IC50 [14] [pM] | IC50 [15] [pM] | Kd [16] [pM] | koff [16] [s⁻¹] | kon [16] [M⁻¹ s⁻¹] | also measured |
| --- | --- | --- | --- | --- | --- | --- | --- | --- | --- | --- | --- | --- | --- | --- | --- | --- | --- | --- | --- |
| 2-3F4 (antibody, V domains shown) VH: QSVEESRGGLIKPTDTLTLTCTASGFSLSNYGVSWVRQAPGNGLEYIGFIGYGGSTYYASWAKSRSTITRNTNLNTVTLQMTSLTAADTATYFCARLCGVDCADALDSWGPGTLVTVSS VL: AYYMTQTPASVEVAVGGTVTIKCQASEDIGSYCSWYQQKPGQPPKLLIYDASDLASGVPSRFKGSGSGTDFTLTISGVQCDDAATYYCQQDYTGNNVDNTFGGGSEVVVK | 380 | 1100 | 90 | 129 | 1140 | 1000 | 1020 | 100 | 1000 | 384 | 0.000184 | 939 | 174 | 27.9 | 54 | – | – | – | – |
| hu3-3F5.L5H19 (antibody, V domains shown) VH: EVQLLESGGGLVQPGGSLRLSCAVSGFSLNDYGVSWVRQAPGKGLEWVGAIGSSGVAWYANFAKGRFTISRDNSKNTLYLQMNSLRAEDTAVYYCARDRDYGYRADDATSGMDLWGRGTLVTVSS VL: AIRMTQSPSSFSASTGDRVTITCQASESIGNALAWYQQKPGKAPKLLIYDASDLASGVPSRFSGSGSGTDFTLTISSLQPEDFATYYCQQGDSHNNVDNIFGGGTKVEIK | – | – | – | – | – | – | – | – | – | – | – | – | – | – | – | 4.14 | 0.000201 | 4.84e+07 | – |
| hu3-3F5.L5H25 (antibody, human IgG1, V domains shown) VH: EVQLLESGGGLVQPGGSLRLSCAASGFSLNDYGVSWVRQAPGKGLEWVGAIGSSGVAWYANFAKGRFTISRDTSKNTVYLQMNSLRAEDTAVYYCARDRDYGYRADDATSGMDLWGRGTLVTVSS VL: AIRMTQSPSSFSASTGDRVTITCQASESIGNALAWYQQKPGKAPKLLIYDASDLASGVPSRFSGSGSGTDFTLTISSLQPEDFATYYCQQGDSHNNVDNIFGGGTKVEIK | – | – | – | – | – | – | – | – | – | – | – | – | – | – | – | 9.14 | 0.000235 | 2.57e+07 | – |
| 2B11 (antibody, V domains shown) VH: QSVKESEGGLFKPTDTLTLTCTVSGFSLINYGVSWVRQAPGKGLEWIGYIGSAGSTYYATWAKSRATITRNTNLNTVTLKMTSLTAADTATYFCARAAYSAGSADAEDIWGPGTLVTVSS VL: AYYMTQTPASVEAAVGGTVTIKCQASQSISNYVAWYQQKPGQPPKLLIYRASTLASGVSSRFSGSGSGTEFTLTISDLECADAATYYCHQGYSSSNVDNIFGGGTEVVVK | 1720 | 860 | 480 | 170 | 6350 | 1000 to 2000 | 1290 | 200 | – | 1720 | 0.000574 | 6360 | 584 | – | 369 | – | – | – | – |
| hu10C5.L5H28 (antibody, V domains shown) VH: EVQLVESGGGLVQPGGSLRLSCAASGFSLSSYGVTWVRQAPGKGLEWIGYITSNYGVSYYASWAKSRSTISRDTSKNTVYLQMGSLRAEDMAVYYCARENPDYGYAYDAWGQGTTVTVSS VL: AIRMTQSPSSFSASTGDRVTITCQASESISNELSWYQQKPGKAPKLLIYYASTLASGVPSRFSGSGSGTDFTLTISSLQPEDFATYYCAQGFGSSGVENVFGGGTKVEIK | – | – | – | – | – | – | – | – | – | – | – | – | – | – | – | 57 | 0.00108 | 1.9e+07 | – |
| 8G10 (antibody, V domains shown) VH: QSLEESGGDLVKPEGSLTLTCTASGFSFSTSYWICWVRQAPGKGLEWIACVYGLDVNIYYASWTEGRFTISKTSSTTVTLQVTSLTAADTATYFCARGGGSADFGFDLWGPGTLVTVSS VL: DVVMTQTPASVSEPVGGTVTIKCQASENIYSLLAWYQQKPGQPPKVLIYDASDLASGVPSRFKGSGSGTQFTLTISDLECADAATYYCQATAYGSSGNAFGGGTEVVVK | – | – | – | – | – | – | – | – | – | – | 0.000245 | – | – | – | – | – | – | – | – |
| hu9H5.L4H14 (antibody, V domains shown) VH: EVQLVESGGGLIQPGGSLRLSCAASGFSLSSYGVSWVRQAPGKGLEYVGFIGSGGFAYYASWAKSRFTISRDNSKNTLYLQMNSLRAEDTAVYYCARDDVGGGKSLDIWGQGTLVTVSS VL: DIQMTQSPSSLSASVGDRVTITCQASQSISSYLSWYQQKPGKAPKLLIYSASTLASGVPSRFSGSGSGTDFTLTISSLQPEDFATYYCHQDYTSSNVDNTFGGGTKVEIK | – | – | – | – | – | – | – | – | – | – | – | – | – | – | – | 694 | 0.000562 | 810000 | – |
| 9H3 (antibody, V domains shown) VH: QSVKESEGGLFKPTDTLTLTCTVSGFSLSGYGVSWVRQAPGKGLEYIGFIGSGGSAYYASWAKSRSTITRNTNLNTVTLKMTRLTAADTATYFCARDNVGGDMSLDIWGPGTLVTVSS VL: DIVMTQTPASVSEPVGGTVTIKCQASQNINNYLSWYQQKPGQPPKQLIYAASTLASGVPSRFKGSGSGTQFTLTISDLECADAATYYCHQDYTSNNVDNTFGGGTEVVVK | 1050 | 1050 | 90 | 120 | 70 | 900 | 1080 | 100 | 1000 | 1050 | 0.000143 | 69.7 | 80.2 | 104 | 72.8 | – | – | – | IC50 (read off the curve) [17]: 70 pM; IC50 (read off the curve) [18]: 100 pM; IC50 (read off the curve) [19]: 200 pM; IC50 (read off the curve) [20]: 50 pM |
| 9B6 (antibody, V domains shown) VH: QSVKESEGGLFKPTDNLTLTCTVSGFSLSNYGVTWVRQAPGNGLEYIGFIGSGGSAYYASWAKSRSTITRNTNLNTVTLKMTSLTAADTATYFCARDDVGGGKSLDIWGPGTLVTVSS VL: NIVMTQTPASVEVAVGGTVVIKCQASQNIGDYLSWYQQKPGQRPKLLIYSASTLASGVPSRFKGSGSGTQFTLTISDLECADAATYYCHQDYTSNDVENTFGGGTEVVVK | 1420 | 950 | 120 | 74 | 185 | 1000 to 2000 | 1170 | – | 1000 | 1420 | 0.000178 | 165 | 202 | 87.9 | 65.9 | – | – | – | IC50 (read off the curve) [17]: 100 pM; IC50 (read off the curve) [18]: 100 pM; IC50 (read off the curve) [19]: 200 pM; IC50 (read off the curve) [20]: 100 pM |
| 8F5 (antibody, V domains shown) VH: QSVKESEGGLFKPTDTLTLTCTVSGFSLSSYPISWVRQAPGNGLEWIGYITSEYGVAYYATWAESRSTITRNTNLNTVTLKMTSLTAADTATYFCVRENPTYGYAYDAWGPGTLVTVSS VL: AYDLTQTPASVEAAVGGTVTINCQASESIGNELSWYQQKSGQPPKLLIYQASTLASGVPSRFKGSGSGTDFTLTISDLECADAATYYCAQGFSSSGVENVFGGGTEVVVK | 1310 | 760 | 160 | 149 | 1910 | 1000 | 1150 | 100 to 200 | 800 | 1310 | 0.000316 | 1850 | 160 | 241 | 69 | – | – | – | – |
| 10C5 (antibody, V domains shown) VH: QSLEESGGGLVKPTDTLTLTCTVSGFSLSSYGVTWVRQAPGRGLEWIGYITSNYGVSYYASWAKSRSTITRNTNLNTVTLKMTSLTAADTATYFCARENPDYGYAYDAWGPGTLVTVSV VL: AYDMTQTPASLEAAVGGTVTINCQASESISNELSWYQQKPGQPPDLLIYYASTLASGVPSRFKGSGSGTEFTLTISDLECADAATYYCAQGFGSSGVENVFGGGTEVVVK | 310 | 580 | 80 | 111 | 150 | 1000 | 980 | 100 | – | 311 | 0.000126 | 41.2 | 123 | 79.5 | 39.9 | 16.5 | 0.000292 | 1.78e+07 | – |

Reference: patent US20200040103A1
